In experiment [1] the target is spike (S) protein of the BA.4/5 SARS-CoV-2 pseudovirus (SARS-CoV-2, Omicron subvariant BA.4/5, UniProt P0DTC2 14-1273). The experiment in a line: cell-based or functional assay.
Experiment [2] addresses spike (S) protein of the authentic parental Omicron variant (B.1.1.529) of SARS-CoV-2 (SARS-CoV-2, B.1.1.529 (Omicron) variant, UniProt P0DTC2 14-1273). The experiment is described as follows: cell-based or functional assay.

B1: plant-made tixagevimab (pTixagevimab) (antibody, V domains shown)
VH: QMQLVQSGPEVKKPGTSVKVSCKASGFTFMSSAVQWVRQARGQRLEWIGWIVIGSGNTNYAQKFQERVTITRDMSTSTAYMELSSLRSEDTAVYYCAAPYCSSISCNDGFDIWGQGTMVTVSS
VL: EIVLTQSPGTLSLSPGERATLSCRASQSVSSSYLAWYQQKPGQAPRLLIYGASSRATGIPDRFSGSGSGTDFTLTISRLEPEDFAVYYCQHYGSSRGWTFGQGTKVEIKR
Consider B1, for which the “neutralization of BA.4/5 pseudovirus, luciferase reporter assay, IC50” value in experiment [1] was determined as 26.7 µg/mL. The “neutralization of authentic B.1.1.529 (Omicron) virus, foci-forming assay, IC50” value in experiment [2] is 19.7 µg/mL.

Values taken from US20240150441A1 (ARIZONA BOARD OF REGENTS ON BEHALF OF ARIZONA STATE …, published 2024).
